Data published in US20210403584A1 (ARMAGEN, published 2021).

B1: chimeric HIR Ab (human insulin receptor antibody) (antibody, human IgG1, kappa, V domains shown)
VH: QVQLQQSGPELVKPGALVKISCKASGYTFTNYDIHWVKQRPGQGLEWIGWIYPGDGSTKYNEKFKGKATLTADKSSSTAYMHLSSLTSEKSAVYFCAREWAYWGQGTLVTVSA
VL: DIQMTQSPSSLSASLGERVSLTCRASQDIGGNLYWLQQGPDGTIKRLIYATSSLDSGVPKRFSGSRSGSDYSLTISSLESEDFVDYYCLQYSSSPWTFGGGTKMEIKR
notes: Chimeric antibody against the extracellular domain of the human insulin receptor; human IgG1/kappa constant regions; also called HIRMAb; HIR MAb

Legend:
[1] = target: human insulin receptor extracellular domain (HIR ECD) (human) (UniProt P06213); experiment: ELISA, HIR ECD plated; against the HIR Ab
[2] = target: T1, human insulin receptor extracellular domain (HIR ECD) (human, UniProt P06213 28-956, limits assumed); experiment: ELISA, recombinant HIR ECD plated, secondary antibody and alkaline phosphatase detection
T1 construct: extracellular domain
Method: The potency of the CHO-derived fusion protein was assessed with the HIR ECD binding ELISA. The affinity of the fusion protein for the HIR extracellular domain (ECD) was determined with an ELISA. Recombinant HIR ECD was plated on Nunc-Maxisorb 96 well dishes and the binding of the HIR Ab, or the HIR Ab-GLB1 fusion protein, to the HIR ECD was detected with a secondary antibody, followed by binding with an alkaline phosphatase detector reagent. […] The MW of the HIR Ab is 150 kDa, and the MW of the HIR Ab-fusion protein is 334 kDa.

| Molecule | binding activity lost [1] | EC50 [2] |
| --- | --- | --- |
| GUSB-HIR Ab fusion protein (GUSB fused to the amino terminus of the HIR Ab heavy chain) (from UniProt P08236 23-633) | > 95% |  |
| B1 |  | 0.037 µg/mL |
